Molecular target: T1, HTN-CK2α^WT with O-GlcNAcylation at Ser347 induced by OGTAC-1 (cells co-expressing fOGT) (UniProt P68400 1-391, O-GlcNAc at Ser347 (level increased by about 2-fold with 100 nM OGTAC-1 at 8 h))
T1 construct: casein kinase II subunit α (CK2α); Same construct as m1; only a part of the copies is modified (the level is raised over the baseline, not complete); also called HTN-CK2α (OGTAC-1 treated); CK2α with higher O-GlcNAcylation level; source: transfected cells co-expressing fOGT, treated with OGTAC-1 for 8 h, in lysate; not shown: HaloTag, N-terminal, kept
Test: co-IP; Flag-CRBN, HTN-CK2α (WT or S347A) and fOGT (WT or K852A) overexpressed in cells; DMSO or 100 nM OGTAC-1 for 8 h; HaloTrap IP; anti-FlagTag and anti-HA-Tag blots
Conditions: partners not purified

T1 sequence (P68400 whole entry): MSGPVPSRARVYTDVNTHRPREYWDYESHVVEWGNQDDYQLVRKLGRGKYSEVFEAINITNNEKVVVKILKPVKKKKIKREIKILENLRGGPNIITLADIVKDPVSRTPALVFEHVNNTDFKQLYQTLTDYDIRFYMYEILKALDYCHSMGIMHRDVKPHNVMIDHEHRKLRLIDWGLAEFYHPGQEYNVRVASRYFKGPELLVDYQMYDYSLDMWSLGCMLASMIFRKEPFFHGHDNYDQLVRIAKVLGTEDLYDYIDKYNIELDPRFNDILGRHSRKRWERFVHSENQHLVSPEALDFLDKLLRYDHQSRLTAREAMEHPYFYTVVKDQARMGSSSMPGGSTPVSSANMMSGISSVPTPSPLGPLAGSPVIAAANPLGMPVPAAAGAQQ

fold change of co-IPed CRBN over the DMSO treatment: ~2 fold
B1: Flag-CRBN (cereblon) (natural protein, UniProt Q96SW2 1-442, looked up)
chain: MAGEGDQQDAAHNMGNHLPLLPAESEEEDEMEVEDQDSKEAKKPNIINFDTSLPTSHTYLGADMEEFHGRTLHDDDSCQVIPVLPQVMMILIPGQTLPLQLFHPQEVSMVRNLIQKDRTFAVLAYSNVQEREAQFGTTAEIYAYREEQDFGIEIVKVKAIGRQRFKVLELRTQSDGIQQAKVQILPECVLPSTMSAVQLESLNKCQIFPSKPVSREDQCSYKWWQKYQKRKFHCANLTSWPRWLYSLYDAETLMDRIKKQLREWDENLKDDSLPSNPIDFSYRVAACLPIDDVLRIQLLKIGSAIQRLRCELDIMNKCTSLCCKQCQETEITTKNEIFSLSLCGPMAAYVNPHGYVHETLTVYKACNLNLIGRPSTEHSWFPGYAWTVAQCKICASHIGWKFTATKKDMSPQKFWGLTRSALLPTIPDTEDEISPDKVILCL
notes: cereblon (CRBN), plasmid bought from Addgene; source: co-IP methods: HeLa or HEK293T
